Patent US5767235
Read-outs that look alike come from different tables or passages of the source.

Legend:
[1] = biological target: human-thrombin (product of Sigma) (human) (UniProt P00734)
[2] = biological target: human-thrombin (product of Sigma) (human) (UniProt P00734); assay: chromogenic thrombin inhibition assay, potency column of Table 3 (hirudin HV-1 = 1)

Substance | 50% Inhibition Concentration (clotting assay) [1] [ng/mL] | Potency [1] | Potency [2]
peptide (N) Suc-Phe-Glu-Pro-Ile-Pro-Glu-Tyr-Tyr-NH(CH2)3OH | 103000 | 0.06 | –
peptide (A) Gly-Asp-Phe-Glu-Glu-Ile-Pro-Glu-Tyr-Tyr-Leu-Gln | 14700 | 0.45 | –
peptide (J) Suc-Phe-Glu-Pro-Ile-Pro-Glu-Tyr-Tyr-NH2 | 98400 | 0.07 | –
peptide (O) Suc-Phe-Glu-Pro-Ile-Pro-Glu-Tyr-Tyr-(L)Asu(OMe)OMe | 35300 | 0.19 | –
hirudin HV-1 | – | 95 | 1
peptide (Y) Suc-Phe-Glu-Pro-Ile-Pro-Glu-Tyr-Tyr-Leu-NHPO(OH)2 | 153000 | 0.04 | –
peptide (W) Suc-Phe-Glu-Pro-Ile-Pro-Glu-Tyr-Tyr-Leu-(D)Asu(NH2)NH2 | 35000 | 0.19 | –
peptide (S) Suc-Phe-Glu-Pro-Ile-Pro-Glu-Tyr-Tyr-Leu-Tau-NH2 | 99600 | 0.07 | –
peptide (V) Suc-Phe-Glu-Pro-Ile-Pro-Glu-Tyr-Tyr-Leu-(L)Asu(OMe)OMe | 30400 | 0.22 | –
peptide (C) Suc-Gly-Asp-Phe-Glu-Pro-Ile-Pro-Glu-Tyr-Tyr-Leu-Gln-OH | 3750 | 1.76 | –
peptide (L) Suc-Phe-Glu-Pro-Ile-Pro-Glu-Tyr-Tyr-NH(CH2)4COOH | 15600 | 0.42 | –
peptide (P) Suc-Phe-Glu-Pro-Ile-Pro-Glu-Tyr-Tyr-Leu-ol | 104000 | 0.06 | –
peptide (U) Suc-Phe-Glu-Pro-Ile-Pro-Glu-Tyr-Tyr-Leu-(D)Asu(OMe)OMe | 47500 | 0.14 | –
peptide (R) Suc-Phe-Glu-Pro-Ile-Pro-Glu-Tyr-Tyr-Leu-NHEt | 36100 | 0.18 | –
peptide (K) Suc-Phe-Glu-Pro-Ile-Pro-Glu-Tyr-Tyr-NH(CH2)2COOH | 30200 | 0.21 | –
peptide (I) Suc-Phe-Glu-Pro-Ile-Pro-Glu-Tyr-Tyr-OH | 20000 | 0.83 | –
peptide (B) Gly-Asp-Phe-Glu-Glu-Ile-Pro-Tyr-Tyr-Tyr-Leu-Gln | 13800 | 0.48 | –
